Data from patent publication US8008256B2, “Combination therapy for treatment of cancer” (priority 2006, dated 2011).

B1: native CN (protein)
chain: DAPANPCCDAATCKLTTGSQCADGLCCDQCKFMKEGTVCRRARGDDLDDYCNGISAGCPRNPFH

Legend:
[1] = tested on: PC-3 tumors; experiment: PC-3 xenograft tumor growth; assay type: in vivo, athymic male nude mice (Balb/c/nu/nu mice); conditions: for mean tumor volume after four weeks: docetaxel i.p. 6 then 4 mg/kg twice a week, CN 60 μg/day osmotic mini-pump, control 378±49; for suppression of growth of PC-3 tumors: four weeks treatment
Procedure: 100 μl of PC-3 cell suspension (1×10^6 cells) (ATCC.org, Manassas, Va.) was mixed with an equal volume, 100 μl of Matrigel basement membrane matrix (BD Biosciences, Bedford, Mass.) and injected subcutaneously into the flank region of athymic male nude mice (Balb/c/nu/nu mice) (Charles River Laboratory, Wilmington, Mass.). Four weeks after inoculation, 32 mice with PC-3 tumors were randomized into four groups with 8 mice in each group. The control group was treated with PBS and released from Alzet osmotic mini-pumps for four weeks. The second group was treated with docetaxel injections intraperitoneally at a dose of 6 mg/kg twice a week for two weeks and then switched to 4 mg/kg twice a week for two weeks. The third group was treated with contortrostatin (CN) at a dose of 60 μg/day which was continually released from subcutaneously implanted Alzet osmotic mini-pumps for four weeks. The fourth group was treated with a combination of docetaxel and CN at doses indicated in groups 2 and 3 for four weeks. Tumor volume was measured one a week and are calculated according to the formula: length×width^2×0.52.

[2] = tested on: MDA-MB-435 breast carcinoma cells; experiment: inhibition of MDA-MB-435 cell adhesion to immobilized fibronectin (Fn); assay type: cell-based, human; conditions: pretreatment 30 min, 0-1000 nM; adhesion 1 hr at 25° C.; MTS
Procedure: (§1) Pretreated cells were allowed to adhere for 1 hr at 25° C., and after non-adherent cells were washed away, the number of adherent cells for each condition was estimated using the MTS cell viability assay. In the cell invasion assay, an invasion chamber consisting of cell culture inserts that fit into 24-well tissue culture plate has been utilized. The inserts contain an 8 μm-pore size polycarbonate membrane, over which a thin layer of ECMatrix™ was applied. The ECMatrix™ serves as an in vitro reconstituted basement membrane and is a solid gel of ECM proteins prepared from the Engelbreth Holm-Swarm (EHS) mouse tumor. The ECM layer occludes the membranes pores, blocking non-invasive cells to migrate through. The cells were incubated in the presence of various concentrations (10, 100, 1000 nM) of either native CN or Vicrostatin for 30 min at 25° C. and then allowed to migrate in the Boyden chamber for 8 hrs. At the 8 hr time point the cells that invaded through the pores into the lower chamber were measured. The numbers of invaded cells for each condition were approximated by quantitating the retrieved labeled DNA using a fluorescent plate reader. The results were calculated in % invasion, where the untreated control was considered as 100% invasion.

[3] = tested on: MDA-MB-435 cells; experiment: MDA-MB-435 cell invasion through Matrigel/ECMatrix in modified Boyden chamber; assay type: cell-based, human; conditions: 10, 100, 1000 nM; 8 hrs in Boyden chamber
Procedure: as §1

[4] = target: T1, GPIIb/IIIa (integrin αIIbβ3) (Homo sapiens, UniProt P05106+P08514); experiment: platelet aggregation inhibition assay (ADP induced, platelet-rich plasma); assay type: cell-based
T1 construct: endogenous in cells
Procedure: The recombinant CN products were evaluated for biological activity by a platelet aggregation inhibition assay. According to this assay, CN binding to GPIIb/IIIa (integrin αIIbβ3) in an RGD dependent manner inhibits ADP induced platelet aggregation (Trikha, Rote, et al. 1994). In this assay, potential inhibitors are added to fresh platelet-rich plasma, and after minute, ADP is added to a final concentration of 1 μM to induce aggregation. If inhibitor is present, functional aggregation will not occur. The IC50 is defined as the concentration at which 50% of the activity is inhibited, and is used as a measure of the potency of an inhibitor.

[5] = tested on: MDA-MB-435 breast carcinoma cells; experiment: inhibition of MDA-MB-435 cell adhesion to immobilized vitronectin (Vn); assay type: cell-based, human; conditions: pretreatment 30 min, 0-1000 nM; adhesion 1 hr at 25° C.; MTS
Procedure: as §1

[6] = liposome encapsulation efficiency (BCA protein assay); assay type: physicochemical
Procedure: Endotoxin-free VN containing liposomes (referred to as LVN) and endotoxin-free native CN containing liposomes (referred to as LCN) were prepared utilizing a probe sonication previously described (Fujii, Chang et al. 1997). Briefly, the lipids (disteroylphosphatidylcholine, cholesterol and polyethylene glycol derivatized lipid) were dissolved in a chloroform/methanol solution. Thin lipid films were created by pipetting aliquots of the lipid solution into round bottom glass tubes followed by solvent evaporation at 65° C. under a stream of nitrogen gas. The films were placed under vacuum for at least 24 hours to remove residual organic solvent. Liposomes formed following hydration of the lipid films with native CN or VN dissolved in 10 mM sodium phosphate, 9% sucrose, pH 7.2. The mixture was incubated at 65° C. for 5-10 minutes. Hydration was followed by probe sonication until the suspension was translucent. […]
The concentration of liposome entrapped CN/VN was determined by disruption of the liposomes with chloroform/methanol/water (10:40:50) followed by centrifugation at 14,000×g. The supernatant was analyzed for CN/VN concentration using BCA protein assay (Smith et al., Anal. Biochem. 150(1): 76-85 (1985)). The encapsulation efficiency was assessed by BCA protein determination following disruption of the LrCN with a solution of H2O methanol: chloroform.

Row | Molecule | mean tumor volume after four weeks [1] [mm^3] | suppression of growth of PC-3 tumors [1] | inhibition of adhesion of MDA-MB-435 cells to immobilized fibronectin (Fn) [2] | inhibition of MDA-MB-435 cell invasion [3] | inhibition of platelet aggregation ([4]; even at low μM concentrations) | inhibition of adhesion of MDA-MB-435 cells to immobilized vitronectin (Vn) [5] | protein in the encapsulation solution entrapped within the liposomes [6] [%] | IC50 in the platelet inhibition assay ([4]; ADP 1 μM induced aggregation)
1 | CC(=O)O[C@@]12CO[C@@H]1C[C@H](O)[C@@]1(C)C(=O)[C@H](O)C3=C(C)[C@@H](OC(=O)[C@H](O)[C@@H](NC(=O)OC(C)(C)C)c4ccccc4)C[C@@](O)([C@@H](OC(=O)c4ccccc4)[C@H]21)C3(C)C [docetaxel, reference compound] | 259±38 | significantly suppressed | – | – | – | – | – | –
2 | rCN: recombinant CN disintegrin domain without the HKGPAT sequence | – | – | inactive in the nanomolar range | inactive in the nanomolar range | did not inhibit platelet aggregation | inactive in the nanomolar range | – | –
3 | B1 | 195±40 | significantly suppressed | inhibited adhesion | – | – | inhibited adhesion | 80 | almost identical
